Assay results taken from FireProtDB (doi:10.1021/bi0357412).

B1: Phosphocarrier protein HPr, P08877 (parent)
chain: MAQKTFKVTADSGIHARPATVLVQTASKYDADVNLEYNGKTVNLKSIMGVMSLGIAKGAEITISASGADENDALNALEETMKSEGLGE

Variants of: B1
Details: Bacillus subtilis (strain 168); pH 7; 25 °C; GdnHCl; CD; Potassium phosphate 10 mM; reversible: yes; structure 1SPH; whole UniProt chain shown
In the case of D69A G49E, the “ddG of mutation (higher = less stable)” value is reported as -0.6 kcal/mol, the denaturant m value is reported as 2.4 kcal/mol/M and the “denaturant midpoint (higher = more stable)” value is reported as 1.8 M. For the same variant, the unfolding free energy was 4.3 kcal/mol.

Same assay, conditions: Bacillus subtilis (strain 168); pH 7; 25 °C; Thermal; CD; Sodium phosphate 50 mM; reversible: yes; structure 1SPH; whole UniProt chain shown
With D69A G49E the “ddG of mutation (higher = less stable)” value was 0.7 kcal/mol and the unfolding free energy was 4.4 kcal/mol.

Same assay, conditions: Bacillus subtilis (strain 168); pH 7; 25 °C; Urea; CD; Sodium phosphate 50 mM; reversible: yes; structure 1SPH; whole UniProt chain shown
For D69A G49E, the “ddG of mutation (higher = less stable)” value was 0.7 kcal/mol, the denaturant m value was 1.1 kcal/mol/M and the “denaturant midpoint (higher = more stable)” value was 3.9 M. It also gave an unfolding free energy of 4.2 kcal/mol.

Same assay, conditions: Bacillus subtilis (strain 168); pH 7; Thermal; DSC; Potassium phosphate 10 mM; reversible: yes; structure 1SPH; whole UniProt chain shown
With D69A G49E the Tm was 70 °C, the “change of melting temperature, mutant - wild type (higher = more stable)” value was -4.9 °C and the “unfolding enthalpy (calorimetric)” value was 71.5 kcal/mol.
